Earlier results in patent US12065466B2, “Methods and compositions for protein sequencing” (Quantum-Si Incorporated, priority 2020, dated 2024).
Positions count from the first letter of the chain named.

B1: PS517: UBR-box domain homolog, SEQ ID NO: 145 (protein)
chain: MMCGRVFKMGEPTYSCRECGVDSTCVLCVGCFQQSAHRDHKYKMGTSGGGGCCDCGDTEAWKRDPFCEIHMV
modifications: Harpegnathos saltator
B2: PS519: UBR-box domain homolog, SEQ ID NO: 147 (protein, listed as Manduca sexta)
chain: MLCGRVFKQGEPAYSCRECGMDNTCVLCVECFKVSAHRHHKYKMGQSGGGGCCDCGDTEAWKRDPFCELHAA
B3: PS516: UBR-box domain homolog, SEQ ID NO: 144 (protein)
chain: MLCGKVFKTGEPTYSCRDCANDPTCVLCIDCFQNGAHKNHRYKMNTSGGGGYCDCGDQEAWTSHPFCNLHSP
modifications: Crassostrea gigas
B4: PS523: UBR-box domain homolog, SEQ ID NO: 151 (protein)
chain: MAKSHRHTGRNCGRAFQPGEPLYRCQECAYDDTCVLCISCFNPDDHVNHHVSTHICNELHDGICDCGDAEAWNVPLHCKAEED
modifications: Saccharomycetaceae sp. Ashbya aceri
B5: PS533: UBR-box domain homolog, SEQ ID NO: 161 (protein, listed as Contarinia nasturtii)
chain: MVCGRVFKMNEPFYSCRECGMDPTCVLCVNCFKQSAHRHHKYKMGTSAGGGCCDCGDNEAWKQDHYCDEHTK
B6: PS521: UBR-box domain homolog, SEQ ID NO: 149 (protein)
chain: MLCGRVFRSGEPTYSCRDCAVDPTCVLCIDCFNNGAHRKHKYRMSTSSGGGYCDCGDKEAWKTDPLCEIHRK
modifications: Lingula anatine
B7: PS513: UBR-box domain homolog, SEQ ID NO: 141 (protein, listed as Pyrenophora seminiperda)
chain: MPCGHIFKNGEATYRCKTCTADDTCVLCARCFDASDHEGHQVFVSVSPGNSGCCDCGDDEAWVRPVHCNIHSA
B8: PS524: UBR-box domain homolog, SEQ ID NO: 152 (protein, listed as Drosophila ficusphila)
chain: MVCGKVFKNGEPTYSCRECGVDPTCVLCVNCFKRSAHRFHKYKMSTSGGGGCCDCGDDEAWKKDHYCQLHLA
B9: PS531: UBR-box domain homolog, SEQ ID NO: 159 (protein, listed as Musca domestica)
chain: B8 chain with N9I, V21M, P23Q, R34Q, F39Y, D58E, Q68E, L69E, A72R
B10: PS509: UBR-box domain homolog, SEQ ID NO: 137 (protein)
chain: MICGHGFKTGEPTYSCRDCATDPTCVLCISCFQKSPHREHRYKMSASGGGGYCDCGDPEAWKIEPFCEQHKP
modifications: Lottia gigantean
B11: PS527: UBR-box domain homolog, SEQ ID NO: 155 (protein, listed as Mizuhopecten yessoensis)
chain: MLCGKVFKYGEPTYSCRDCANDPTCVLCIDCFQKSAHKKHRYKMSTSGGGGYCDCGDSEAWKTAPFCSNHKA
B12: PS510: UBR-box domain homolog, SEQ ID NO: 138 (protein, listed as Camponotus floridanus)
chain: MICGRMFKMGEPTYSCRQCGMDSTCVLCVDCFKQSAHRNHKYKMGTSSGGGCCDCGDTEAWKNEPFCKIHLA
B13: PS515: UBR-box domain homolog, SEQ ID NO: 143 (protein, listed as Wasmannia auropunctata)
chain: B12 chain with R5K, M9I, Q18E, N63K, I69T, L71V, A72V
B14: PS525: UBR-box domain homolog, SEQ ID NO: 153 (protein, listed as Mus musculus)
chain: MLCGKVFKSGETTYSCRDCAIDPTCVLCMDCFQSSVHKNHRYKMHTSTGGGFCDCGDTEAWKTGPFCVDHEP
B15: PS529: UBR-box domain homolog, SEQ ID NO: 157 (protein)
chain: B14 chain with S9G, S34N, V36I, F66L, V68A, D69N
modifications: Chelonia mydas
B16: PS511: UBR-box domain homolog, SEQ ID NO: 139 (protein, listed as Habropoda laboriosa)
chain: MICGKVFKMGEATYSCKECGVDPTCVLCADCFKQSAHRHHKYRMGTSSGGGFCDCGDIEAWKKEPFCNTHLA
B17: PS514: UBR-box domain homolog, SEQ ID NO: 142 (protein, listed as Tribolium castaneum)
chain: MVCGRVFKLGEPTYSCRECGMDNTCVLCVNCFKNSEHRFHKYKMGTSQGGGCCDCGDVEAWKKAPFCDVHIA
B18: PS518: UBR-box domain homolog, SEQ ID NO: 146 (protein, listed as Nilaparvata lugens)
chain: MVCGRVFKMGEPSYHCRECGMDATCVLCVDCFKKSSHRNHKYKMGTSIGGGCCDCGDVEAWKTEPYCEVHIA
B19: PS532: UBR-box domain homolog, SEQ ID NO: 160 (protein, listed as Schizosaccharomyces cryophilus)
chain: MSCGRIFKKGEVFYRCKTCSVDSNSALCVKCFRATDHHGHETSFTISAGSGGCCDCGNSAAWIRDMPCKIHNR
B20: PS508: UBR-box domain homolog, SEQ ID NO: 136 (protein)
chain: MLCGRVFKEGETVYSCRDCAIDPTCVLCIECFQKSVHKSHRYKMHASAGGGFCDCGDLEAWKTGPCCSQHDP
modifications: Anabarilius graham
B21: PS512: UBR-box domain homolog, SEQ ID NO: 140 (protein, listed as Mastacembelus armatus)
chain: B20 chain with I29M, E30D, K34D, L58V, T63I, C66Y, Q69K
B22: PS520: UBR-box domain homolog, SEQ ID NO: 148 (protein, listed as Monopterus albus)
chain: B20 chain with I29M, E30D, K34D, A48S, L58V, T63I, Q69K
B23: PS526: UBR-box domain homolog, SEQ ID NO: 154 (protein, listed as Maylandia zebra)
chain: B20 chain with I29M, E30D, K34D, A48S, L58V, T63I, C66Y, Q69K
B24: PS530: UBR-box domain homolog, SEQ ID NO: 158 (protein, listed as Acropora millepora)
chain: MLCGKVFKVGEPTYSCRDCGYDNTCVLCINCFQKSIHKNHHYKMNTSGGGGVCDCGDVEAWKEGEACEIHQQ

test system: amino acid at a terminal position of a polypeptide; details: Table 2; amino acid identity at a terminal position (phosphotyrosine also internal); inferred from literature and/or demonstrated by the inventors; cited from earlier work

Molecule | Binding Pref.
B1 | K, R, H
B2 | K, R, H
B3 | K, R, H
B4 | K, R, H
B5 | K, R, H
B6 | K, R, H
B7 | K, R, H
B8 | K, R, H
B9 | K, R, H
B10 | K, R, H
B11 | K, R, H
B12 | K, R, H
B13 | K, R, H
B14 | K, R, H
B15 | K, R, H
B16 | K, R, H
B17 | K, R, H
B18 | K, R, H
B19 | K, R, H
B20 | K, R, H
B21 | K, R, H
B22 | K, R, H
B23 | K, R, H
B24 | K, R, H
